Laboratory results from the supplement of paper PMC10724198.
± gives the standard deviation of the averaged measurements.

Tested on: Saccharomyces cerevisiae
Assay: protein stability index of tFT-peptide fusion (C-terminal peptide) (PSI (0-1 scale)); higher = more stable (slower turnover)
Conditions: temperature: 30 C
Method: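 MPS profiling in S. cerevisiae of the yeast C-terminome library: the last 12 aa of each annotated ORF are fused to the C-terminus of a sfGFP-mCherry timer, after a GGGS linker. Cells are FACS-sorted into 8 mCherry/sfGFP bins and deep-sequenced. PSI runs from 0 (unstable) to 1 (stable); wild type and das1Δ backgrounds, two technical replicates each.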

[1] = genetic background: das1 deletion

Sequence	protein stability index [1]	protein stability index (genetic background: wild type)
QIAGRYVVDTSK [ADH2 C-terminal 12 aa]	0.6869 ± 0.0057	0.6522 ± 0.0027
QINDLEIYRKRL [SNT309 C-terminal 12 aa]	0.6847 ± 0.006	0.68 ± 0.029
QKLGIIGKNDLK [PSD1 C-terminal 12 aa]	0.685 ± 0.029	0.709 ± 0.016
QKYQVYKNFETL [UTR4 C-terminal 12 aa]	0.7 ± 0.015	0.688 ± 0.0077
QLHLVLTLRGGN [RUB1 C-terminal 12 aa]	0.683 ± 0.011	0.74 ± 0.053
QLSRNEESLMKK [COS5 C-terminal 12 aa]	0.7 ± 0.015	0.752 ± 0.059
QMTRNVNNNDFS [YAH1 C-terminal 12 aa]	0.711 ± 0.028	0.664 ± 0.014
QMVRDEGFEKNP [GPM3 C-terminal 12 aa]	0.68 ± 0.038	0.644 ± 0.036
QPDDKTKGILDR [ERV41 C-terminal 12 aa]	0.7292 ± 0.0051	0.682 ± 0.03
QQEQDKKKKSNH [PRE6 C-terminal 12 aa]	0.709 ± 0.013	0.49 ± 0.013
QRDFLLFYNAIM [CDC36 C-terminal 12 aa]	0.687 ± 0.012	0.533 ± 0.075
QSFETVFAGQKP [MET17 C-terminal 12 aa]	0.7008 ± 0.0036	0.702 ± 0.027
QTDNTSATNQLL [YSP2 C-terminal 12 aa]	0.7 ± 0.0084	0.701 ± 0.029
QTINTKPLYIKN [YGR290W C-terminal 12 aa]	0.686 ± 0.02	0.665 ± 0.075
QVGKSQAQAVTL [ANY1 C-terminal 12 aa]	0.674 ± 0.0092	0.7167 ± 0.0057
QVPEEDFPVVNY [DNL4 C-terminal 12 aa]	0.697 ± 0.009	0.718 ± 0.034
RAEVAALAAENK [PFK1 C-terminal 12 aa]	0.6903 ± 0.0045	0.6608 ± 0.0054
RAHITKQKKKGY [SDA1 C-terminal 12 aa]	0.7317 ± 0.0043	0.6636 ± 0.0011
RARLIRKKKTIN [YER085C C-terminal 12 aa]	0.751 ± 0.022	0.202 ± 0.022
RAVTPTGKKGRN [YOR296W C-terminal 12 aa]	0.675 ± 0.035	0.6578 ± 0.0052
RCNVYIIRCIHH [YOL164W-A C-terminal 12 aa]	0.5183 ± 0.00055	0.51 ± 0.037

Sequence	protein stability index [1]	protein stability index (genetic background: wild type)
RCWVQAVFDVPQ [ABP140 C-terminal 12 aa]	0.725 ± 0.011	0.691 ± 0.046
RDHDLKDCGDIF [OSH2 C-terminal 12 aa]	0.7104 ± 0.0011	0.698 ± 0.039
RELFGVGTPQKL [TEA1 C-terminal 12 aa]	0.7173 ± 0.0037	0.728 ± 0.023
RELTDLFGYKLG [SLM4 C-terminal 12 aa]	0.708 ± 0.015	0.677 ± 0.02
RESINEAKLRHT [BDH2 C-terminal 12 aa]	0.676 ± 0.02	0.63 ± 0.011
REWASNTVKKEK [EMC5 C-terminal 12 aa]	0.698 ± 0.013	0.692 ± 0.024
RFRVVLGDSDDE [PSH1 C-terminal 12 aa]	0.672 ± 0.043	0.721 ± 0.075
RGRGALVDSDDE [ELF1 C-terminal 12 aa]	0.713 ± 0.026	0.674 ± 0.046
RGSCDNWKKRQN [YBL044W C-terminal 12 aa]	0.726 ± 0.021	0.482 ± 0.0072
RIPKELTGTVRF [GAT4 C-terminal 12 aa]	0.705 ± 0.018	0.672 ± 0.014
RITRLSSMTYTY [YPS5 C-terminal 12 aa]	0.711 ± 0.038	0.69 ± 0.033
RKQAHELRPKSE [SPO7 C-terminal 12 aa]	0.77 ± 0.024	0.79 ± 0.019
RKSHERPDDVSV [SUR7 C-terminal 12 aa]	0.692 ± 0.018	0.69 ± 0.028
RKSTRSDNPHEA [CBF1 C-terminal 12 aa]	0.6989 ± 0.0016	0.687 ± 0.017
RLDRHFEKKKKV [RDS3 C-terminal 12 aa]	0.704 ± 0.023	0.7 ± 0.021
RLEQGSNGFMFA [NAM8 C-terminal 12 aa]	0.702 ± 0.026	0.699 ± 0.011
RLGASNSSNNDA [SLY1 C-terminal 12 aa]	0.702 ± 0.022	0.68 ± 0.018
RLRKWLSTFVHQ [YNL034W C-terminal 12 aa]	0.756 ± 0.045	0.182 ± 0.017
RMYTRHKTSFPL [YAL042C-A C-terminal 12 aa]	0.711 ± 0.02	0.66427 ± 0.00065
RNSGEKLVAVLK [YNL134C C-terminal 12 aa]	0.691 ± 0.0088	0.6702 ± 0.0052
RNSPSYTGDHKT [YOR072W-A C-terminal 12 aa]	0.722 ± 0.02	0.6928 ± 0.0067

Sequence	protein stability index [1]	protein stability index (genetic background: wild type)
RNWLGFCTKYEL [ATG15 C-terminal 12 aa]	0.741 ± 0.021	0.735 ± 0.047
RPDSTAPSNENQ [PEP1 C-terminal 12 aa]	0.7262 ± 0.00093	0.7245 ± 0.0041
RPFEIASFRLYF [AMS1 C-terminal 12 aa]	0.703 ± 0.026	0.683 ± 0.016
RQYAGCKVNVGK [NUS1 C-terminal 12 aa]	0.707 ± 0.015	0.705 ± 0.051
RRIIESINKSQG [HAT1 C-terminal 12 aa]	0.659 ± 0.012	0.6752 ± 0.0052
RRLEMEIANLQE [SPC34 C-terminal 12 aa]	0.726 ± 0.036	0.706 ± 0.028
RRQSLPKRFPLI [YAR035C-A C-terminal 12 aa]	0.717 ± 0.014	0.697 ± 0.022
RSLLRKSKPLQA [RPM2 C-terminal 12 aa]	0.675 ± 0.024	0.639 ± 0.018
RSPKKKKNYHKR [NUR1 C-terminal 12 aa]	0.74 ± 0.061	0.6729 ± 0.006
RTGSQSPPSSSQ [MED7 C-terminal 12 aa]	0.707 ± 0.022	0.673 ± 0.025
RVPQSRSFGNLR [NUM1 C-terminal 12 aa]	0.738 ± 0.012	0.746 ± 0.038
RVSRMRAKRKYQ [YOR300W C-terminal 12 aa]	0.712 ± 0.034	0.6764 ± 0.0037
RYAHIGGLHQRT [PRR2 C-terminal 12 aa]	0.709 ± 0.01	0.686 ± 0.018
RYIRHLQQNVST [PHO4 C-terminal 12 aa]	0.688 ± 0.016	0.683 ± 0.037
RYIYAYINAQVQ [YHL005C C-terminal 12 aa]	0.502 ± 0.03	0.452 ± 0.0055
SDDDDYDEVANQ [UBC8 C-terminal 12 aa]	0.689 ± 0.031	0.664 ± 0.015
SDLNVLLQIKHS [YNL228W C-terminal 12 aa]	0.7201 ± 0.00055	0.31 ± 0.015
SEEEEEEEWKGF [RRP1 C-terminal 12 aa]	0.68 ± 0.011	0.673 ± 0.033
SEKIYRRSLFKQ [YKL165C-A C-terminal 12 aa]	0.708 ± 0.03	0.686 ± 0.044
SEYRRKQQEKKD [YPI1 C-terminal 12 aa]	0.722 ± 0.019	0.688 ± 0.023
SFGIGSKVFSSM [YHR063W-A C-terminal 12 aa]	0.711 ± 0.021	0.695 ± 0.01

Sequence	protein stability index [1]	protein stability index (genetic background: wild type)
SFTKSRIHLEFT [SPC105 C-terminal 12 aa]	0.706 ± 0.024	0.69832 ± 2.3e-05
SFWPHVAGELEY [INM2 C-terminal 12 aa]	0.72 ± 0.014	0.693 ± 0.04
SGGVLDSGDVSL [YGR182C C-terminal 12 aa]	0.684 ± 0.022	0.661 ± 0.029
SHAALGNETNSL [YHR052C-B C-terminal 12 aa]	0.6826 ± 0.0062	0.684 ± 0.034
SIIDKELENIDS [SGD1 C-terminal 12 aa]	0.731 ± 0.027	0.681 ± 0.018
SKGAQKRKNAKK [SHR3 C-terminal 12 aa]	0.682 ± 0.009	0.66 ± 0.022
SKKDYSIDSVEM [TPO2 C-terminal 12 aa]	0.698 ± 0.0055	0.677 ± 0.014
SKRVYSICHYEF [ABM1 C-terminal 12 aa]	0.693 ± 0.018	0.695 ± 0.012
SKVNSTRLVSRK [KAR3 C-terminal 12 aa]	0.6908 ± 0.0058	0.723 ± 0.014
SLEHFIDSVSSL [TRP4 C-terminal 12 aa]	0.7199 ± 0.0016	0.672 ± 0.013
SLIDAKTGLPKE [MVD1 C-terminal 12 aa]	0.6964 ± 0.004	0.706 ± 0.042
SLVKTHNSSLCK [IAI11 C-terminal 12 aa]	0.663 ± 0.026	0.689 ± 0.095
SNYGGNSTWGGH [SPT5 C-terminal 12 aa]	0.732 ± 0.11	0.673 ± 0.16
SPELHTYETIYD [ROY1 C-terminal 12 aa]	0.752 ± 0.0093	0.7694 ± 0.0053
SPEQLKVSLKWH [SKM1 C-terminal 12 aa]	0.718 ± 0.01	0.699 ± 0.022
SPGEYEIGDMEN [YDR061W C-terminal 12 aa]	0.675 ± 0.016	0.681 ± 0.048
SPVPTKKKGFLR [CDC3 C-terminal 12 aa]	0.705 ± 0.017	0.684 ± 0.012
SQLPSLYAPSYY [SSU72 C-terminal 12 aa]	0.703 ± 0.02	0.7264 ± 0.0056
SQTKSKQTLFTI [YPR142C C-terminal 12 aa]	0.722 ± 0.021	0.695 ± 0.038
